Laboratory results published in patent US7371551B1, “Feedback-resistant homoserine transsuccinylases” (priority 2002, dated 2008).
Positions count from the first letter of the chain named.

B1: pSLmetAH: MetA variant with His instead of Asp at position 101 (protein, UniProt P07623 2-309, looked up, variant D101H)
Homoserine …: PIRVPDELPAVNFLREENVFVMTTSRASGQEIRPLKVLILNLMPKKIETENQFLRLLSNSPLQVDIQLLRIDSRESRNTPAEHLNNFYCNFEDIQDQNFHGLIVTGAPLGLVEFNDVAYWPQIKQVLEWSKDHVTSTLFVCWAVQAALNILYGIPKQTRTEKLSGVYEHHILHPHALLTRGFDDSFLAPHSRYADFPAALIRDYTDLEILAETEEGDAYLFASKDKRIAFVTGHPEYDAQTLAQEFFRDVEAGLDPDVPYNYFPHNDPQNTPRASWRSHGNLLFTNWLNYYVYQITPYDLRHMNPTLD
B2: pSLmetAC: MetA variant with Cys instead of Asp at position 101 (protein, UniProt P07623 2-309, looked up, variant D101C)
Homoserine …: B1 Homoserine … with H100C
B3: pSLmetAS: MetA variant with Ser instead of Asp at position 101 (protein, UniProt P07623 2-309, looked up, variant D101S)
Homoserine …: B1 Homoserine … with H100S
B4: pSLmetAA: MetA variant with Ala instead of Asp at position 101 (protein, UniProt P07623 2-309, looked up, variant D101A)
Homoserine …: B1 Homoserine … with H100A
B5: pSLmetAY: MetA variant with Tyr instead of Asp at position 101 (protein, UniProt P07623 2-309, looked up, variant D101Y)
Homoserine …: B1 Homoserine … with H100Y
B6: pKP413GAP: E. coli wild-type homoserine transsuccinylase (MetA; Asp101, Tyr294) expressed from starting plasmid pKP413GAP (protein, UniProt P07623 2-309, looked up)
Homoserine …: B1 Homoserine … with H100D
B7: pSLmetA*Q: MetA variant with Gln instead of Tyr at position 294 (protein, UniProt P07623 2-309, looked up, variant Y294Q)
Homoserine …: B1 Homoserine … with H100D, Y293Q
B8: pKP446: MetA variant with Cys instead of Tyr at position 294 (protein, UniProt P07623 2-309, looked up, variant Y294C)
Homoserine …: B1 Homoserine … with H100D, Y293C
B9: pSLmetA*P: MetA variant with Pro instead of Tyr at position 294 (protein, UniProt P07623 2-309, looked up, variant Y294P)
Homoserine …: B1 Homoserine … with H100D, Y293P
B10: pSLmetA*L: MetA variant with Leu instead of Tyr at position 294 (protein, UniProt P07623 2-309, looked up, variant Y294L)
Homoserine …: B1 Homoserine … with H100D, Y293L
B11: pSLmetA*K: MetA variant with Lys instead of Tyr at position 294 (protein, UniProt P07623 2-309, looked up, variant Y294K)
Homoserine …: B1 Homoserine … with H100D, Y293K
B12: pSLmetAN: MetA variant with Asn instead of Asp at position 101 (protein, UniProt P07623 2-309, looked up, variant D101N)
Homoserine …: B1 Homoserine … with H100N
B13: pSLmetA*A: MetA variant with Ala instead of Tyr at position 294 (protein, UniProt P07623 2-309, looked up, variant Y294A)
Homoserine …: B1 Homoserine … with H100D, Y293A
B14: pSLmetA*0: MetA variant in which amino acid 294 is deleted (protein, UniProt P07623 2-309, looked up, variant Y294*)
Homoserine …: PIRVPDELPAVNFLREENVFVMTTSRASGQEIRPLKVLILNLMPKKIETENQFLRLLSNSPLQVDIQLLRIDSRESRNTPAEHLNNFYCNFEDIQDQNFDGLIVTGAPLGLVEFNDVAYWPQIKQVLEWSKDHVTSTLFVCWAVQAALNILYGIPKQTRTEKLSGVYEHHILHPHALLTRGFDDSFLAPHSRYADFPAALIRDYTDLEILAETEEGDAYLFASKDKRIAFVTGHPEYDAQTLAQEFFRDVEAGLDPDVPYNYFPHNDPQNTPRASWRSHGNLLFTNWLNYYVQITPYDLRHMNPTLD

These molecules were tested on homoserine transsuccinylase (assay: Homoserine transsuccinylase enzyme test using cell extracts, decrease in extinction at 232 nm, with and without L-methionine). Details: 1 mM L-methionine; activity in the absence of L-methionine corresponds to 100%.
Format: biochemical, E. coli
From the text: Any method which enables the activity of the enzyme to be determined in the presence of L-methionine or SAM can be used for determining the sensitivity of the homoserine transsuccinylase to L-methionine and/or SAM. For example, the homoserine transsuccinylase activity can be determined by following the method described by Kredich and Tomkins for determining the activity of serine acetyltransferases (Kredich N. M. and Tomkins G. M., J. Biol. Chem. 241, 4955-4965 (1966)). The enzyme activity is measured in an assay sample which contains homoserine and succinyl-CoA. The reaction is started by adding enzyme and monitored in a spectrophotometer by way of the decrease in the extinction at 232 nm which results from cleavage of the thioester bond in the succinyl-coenzyme A. The described test is suitable for determining the sensitivity of the homoserine transsuccinylases to methionine. The inhibition of homoserine transsuccinylase activity is tested in the presence of different concentrations of L-methionine in the reaction mixture.
The activity, and the influence of L-methionine on the activity, of the different homoserine transsuccinylases were determined by means of an enzyme test using cell extracts in which the respective proteins had been produced. For this, the corresponding plasmids, encoding altered homoserine transsuccinylases, were introduced, by transformation, into the E. coli strain W3110 (ATCC 27325) using methods known to the skilled person. The transformation mixture was spread on LB-tetracycline agar plates (10 g of tryptone/l, 5 g of yeast extract/l, 5 g of NaCl/l, 15 g of agar/l and 15 mg of tetracycline/l) and incubated at 37° C. overnight. The resulting transformants were grown in SM1 medium (for 1 l of medium: CaCl2×2H2O, 0.0147 g, MgSO4×7H2O, 0.3 g, Na2MoO4×2H2O, 0.15 mg, H3BO3, 2.5 mg, CoCl2×6H2O, 0.7 mg, CuSO4×5H2O, 0.25 mg, MnCl2×4H2O, 1.6 mg, ZnSO4×7H2O, 0.3 mg, KH2PO4, 3.0 g, K2HPO4, 12.0 g, (NH4)2SO4, 5 g, NaCl, 0.6 g, FeSO4×7H2O, 0.002 g, Na3-citrate×2H2O, 1 g, glucose, 5 g, tryptone, 1 g, yeast extract, 0.5 g), centrifuged down at an absorption of approx. 0.8 at 600 nm, washed in 50 mM Tris pH 7.5, and centrifuged down once again. The cells were resuspended in 50 mM Tris/Cl, pH 7.5, 2 mM dithiothreitol, 0.5 mM phenylmethylsulfonyl fluoride and disrupted in a French press. The supernatant from a further centrifugation was used as the enzyme extract in the test. The enzyme activity was determined, in a mixture containing 50 mM Tris/Cl, pH 7.6, 1 mM homoserine and 0.1 mM succinyl-CoA, by photometrically quantifying, by means of the decrease in the extinction at 232 nm, the coenzyme A formed in the reaction, following the method described by Kredich and Tomkins for determining the activity of serine acetyltransferases (Kredich N. M. and Tomkins G. M., J. Biol. Chem. 241, 4955-4965 (1966)). The effect of added L-methionine on the activity was determined and the inhibitability was quantified as a Ki value. The Ki which is determined is the concentration of L-methionine at which the activity of the homoserine transsuccinylase is only 50% of its activity in the absence of L-methionine.

Compared with B1, B2 is higher in “Activity (%) in the presence of 1 mM L-methionine” value: 90% for the first, 92% for the second.

Compared with B3, B4 is higher in “Activity (%) in the presence of 1 mM L-methionine” value: 89% for the first, 96% for the second.

B5 was tested, and the “Activity (%) in the presence of 1 mM L-methionine” value was 93%.

Same assay, conditions: cell extract of E. coli W3110 transformants; 1 mM homoserine, 0.1 mM succinyl-CoA, 50 mM Tris/Cl pH 7.6

Compared with B6, B7 is lower in “Activity (U/mg)” value: 0.155 U/mg for the first, 0.065 U/mg for the second.

Compared with B8, B1 is lower in “Activity (U/mg)” value: 0.133 U/mg for the first, 0.045 U/mg for the second.

First: B9
Second: B10
The “Activity (U/mg)” value of the first is lower: 0.020 U/mg for the first, 0.070 U/mg for the second.

First: B2
Second: B11
The “Activity (U/mg)” value of the first is higher: 0.084 U/mg for the first, 0.048 U/mg for the second.

Compared with B3, B12 is higher in “Activity (U/mg)” value: 0.027 U/mg for the first, 0.050 U/mg for the second.

Going from B13 to B4, the “Activity (U/mg)” value falls from 0.063 U/mg to 0.031 U/mg.

Going from B5 to B14, the “Activity (U/mg)” value falls from 0.094 U/mg to 0.085 U/mg.

Same assay, conditions: concentration of L-methionine at which activity is only 50% of activity in its absence

First: B1
Second: B2
The Ki of the first is 2.4-fold higher: 12 mM for the first, 5 mM for the second. The second binds more tightly here.

B3 and B4 are within 1.5-fold of each other in Ki: 7.5 mM for the first, 6 mM for the second.

For B5, the Ki was 10 mM.

The molecules below were run on homoserine transsuccinylase (assay: Homoserine transsuccinylase activity test (Lee et al.), 5,5'-dithiobis(2-nitrobenzoic acid), absorption at 412 nm, with and without SAM). Details: 1 mM SAM; activity in the absence of SAM corresponds to 100%.
Format: biochemical, E. coli
Procedure: In order to determine the sensitivity of the activity of the different homoserine transsuccinylases to SAM, it is possible, for example, to carry out an activity test as described in Lee L. W. et al., J. Biol. Chem. 241, 5479-5480 (1966). In this method, the enzyme extract is incubated with homoserine and succinyl-CoA. After various times, a part of the test assay sample is stopped by adding it to a mixture of ethanol, water, and 5,5′-dithiobis(2-nitrobenzoic acid). The absorption is determined photometrically at 412 nm. The described test is suitable, for example, for determining the sensitivity of the homoserine transsuccinylases to SAM.
The influence of SAM on the activities of the different homoserine transsuccinylases was determined by quantifying the activity in the presence of different concentrations of SAM (Cl salt, Sigma). The cell extracts were grown and prepared as described in Example 3. The activity test was carried out as described in Lee L. W. et al., J. Biol. Chem. 241, 5479-5480 (1966), with the enzyme extract being incubated with 50 mM potassium phosphate buffer, pH 7.5, 3 mM homoserine and 0.3 mM succinyl-CoA. After various times, 100 μl volumes of test mixture were stopped by adding them in each case to a mixture of 400 μl of ethanol, 400 μl of water and 100 μl of 10 mM 5,5′-dithiobis(2-nitrobenzoic acid). After the resulting mixture had been incubated at room temperature for 5 minutes, the absorption was determined photometrically at 412 nm. After the protein concentration had been determined, the enzyme activity was calculated using the extinction coefficient. The Ki was determined as a measure of the ability of SAM to inhibit the activity.

Going from B1 to B2, the “Activity (%) in the presence of 1 mM SAM” value falls from 93% to 91%.

First: B4
Second: B5
The “Activity (%) in the presence of 1 mM SAM” value of the first is lower: 90% for the first, 95% for the second.

Same assay, conditions: SAM (Cl salt, Sigma) as inhibitor

Going from B1 to B2, the Ki falls from 16 mM to 7 mM (2.3-fold).

B3 and B4 are within 1.5-fold of each other in Ki: 10 mM for the first, 8 mM for the second.

Molecule B5 has a Ki of 14 mM.

Same assay, conditions: cell extract; 3 mM homoserine, 0.3 mM succinyl-CoA, 50 mM potassium phosphate buffer pH 7.5

Compared with B6, B7 is lower in “Activity (U/mg)” value: 0.62 U/mg for the first, 0.21 U/mg for the second.

Compared with B8, B1 is lower in “Activity (U/mg)” value: 0.49 U/mg for the first, 0.27 U/mg for the second.

Going from B9 to B10, the “Activity (U/mg)” value rises from 0.15 U/mg to 0.29 U/mg.

Going from B2 to B11, the “Activity (U/mg)” value falls from 0.51 U/mg to 0.14 U/mg.

First: B3
Second: B12
The “Activity (U/mg)” value of the first is lower: 0.15 U/mg for the first, 0.30 U/mg for the second.

Compared with B13, B4 is lower in “Activity (U/mg)” value: 0.26 U/mg for the first, 0.20 U/mg for the second.

Going from B5 to B14, the “Activity (U/mg)” value falls from 0.61 U/mg to 0.33 U/mg.
